Results on one substance are retold here after patent US20220251184A1.

Experiment [1] has as its target human BMP6 (R&D Systems, Cat #507-BP) (human) (UniProt P22004). Briefly: SPR (MASS-1), mAb captured on anti-human Fc, hBMP6 in solution, 37 C.
For experiment [2] the target is unchanged. In words: SPR (Biacore 3000), blocking of hBMP6 binding to immobilised hActR2A-hFc (competitor) by 400 nM mAb, 25 C. For orientation: SPR reads the build-up and loss of mass on a sensor chip optically.
The target in experiment [3] is mouse BMP6 (R&D Systems, Cat #6325-BM) (mouse) (UniProt P20722). Briefly: SPR (MASS-1), mAb captured on anti-human Fc, mBMP6 in solution, 25 C.
mouse BMP6 (R&D Systems, Cat #6325-BM) (mouse), sequence (P20722 372-510 limits assumed): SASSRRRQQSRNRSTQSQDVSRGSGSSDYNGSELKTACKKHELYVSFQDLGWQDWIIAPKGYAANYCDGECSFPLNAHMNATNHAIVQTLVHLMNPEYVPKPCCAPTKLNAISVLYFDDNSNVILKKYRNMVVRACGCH
Experiment [4] shares this target. Briefly: SPR (MASS-1), mAb captured on anti-human Fc, mBMP6 in solution, 37 C.
In experiment [5] the target is human BMP6 (R&D Systems, Cat #507-BP) (human) (UniProt P22004). In words: SPR (Biacore 3000), blocking of hBMP6 binding to immobilised hHJV-hFc (competitor) by 400 nM mAb, 25 C.
human BMP6 (R&D Systems, Cat #507-BP) (human), sequence (P22004 375-513 limits assumed): as the sequence (P20722 372-510 limits assumed) above, with S21A, G23V, G25S, S26A, G31S, K39R counted along it
The target is the same in experiment [6]. Briefly: SPR (Biacore 3000), premix of 400 nM mAb and 10 nM hBMP6 over immobilised hActR2B-hFc (competitor), 25 C.
For experiment [7] the target is unchanged. Briefly: SPR (Biacore 3000), blocking of hBMP6 binding to immobilised hActR2B-hFc (competitor) by 400 nM mAb, 25 C.
Experiment [8] shares this target. Briefly: SPR (Biacore 3000), premix of 400 nM mAb and 10 nM hBMP6 over immobilised hActR2A-hFc (competitor), 25 C.
Experiment [9] has the same target. Briefly: SPR (Biacore 3000), premix of 400 nM mAb and 10 nM hBMP6 over immobilised hHJV-hFc (competitor), 25 C.
Experiment [10] shares this target. In words: SPR (MASS-1), mAb captured on anti-human Fc, hBMP6 in solution, 25 C.

As for Isotype Control mAb (antibody), the 60 nM hBMP6 Bound (RU) in experiment [1] and in experiment [10] was 2 RU each time. Also, the % Blocking in experiment [2] is 43%; in [5] it was 41%; in [7] it was 25%. For the same substance, the 60 nM mBMP6 Bound (RU) in experiment [3] and in [4] was 3 RU in each case. For the same substance, the 400 nM mAb + 10 nM hBMP-6 Binding (RU) in experiment [6] was found to be 187 RU; in experiment [8], 246 RU; in [9], 299 RU.
